# Data taken from PMC4365404, “Understanding the effect of alternative splicing in the folding and function of the second PDZ from Protein Tyrosine Phosphatase-BL” (Scientific Reports, 2015).
# Where a SMILES comes first, the peptide text is derived from it. Where no end group is shown, it is not given here. The star is where a group is joined. Dansyl = CN(C)c1cccc2c(S(=O)(=O)*)cccc12
# T1: pWT43 PDZ2as (Mus musculus, UniProt Q64512, INS1372VLFDK/Y1385W)
# T1 construct: The second PDZ domain of the protein tyrosine phosphatase BL (PDZ2); made in house
# T1 sequence (Q64512 with tags, fused parts or gaps INS1372VLFDK/Y1385W): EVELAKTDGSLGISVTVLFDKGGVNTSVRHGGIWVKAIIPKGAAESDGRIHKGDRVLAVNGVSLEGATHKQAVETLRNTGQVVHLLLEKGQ
# T2: pWT43 PDZ2as, the alternatively spliced form of the second PDZ domain of protein tyrosine phosphatase BL …
# T2 chain: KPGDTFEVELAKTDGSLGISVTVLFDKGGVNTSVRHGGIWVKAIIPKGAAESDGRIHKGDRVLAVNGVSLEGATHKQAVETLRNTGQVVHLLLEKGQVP
# B1: Dansylated peptide corresponding to the C-terminus of APC (D-SYLVTSV) (peptide)
# peptide: Dansyl-SYLVTSV
# notes: C-terminus of the tumour suppressor protein APC; the last 7 residues; also called APC peptide; source: bought: JPT Peptide Technologies (Berlin, Germany), HPLC-purified, purity higher than 95%
# B2: Dansylated peptide corresponding to the C-terminus of RIL (D-EQVSAV) (peptide)
# peptide: Dansyl-EQVSAV
# notes: Which natural protein the peptide comes from is in doubt; also called RIL peptide; source: bought: JPT Peptide Technologies (Berlin, Germany), HPLC-purified, purity higher than 95%
# Columns and labels:
# pWT43 PDZ2as = target: T1, pWT43 PDZ2as; assay: T-jump kinetic binding of dansylated peptides to pWT43 PDZ2as; details: 50 mM sodium phosphate pH 7.2, 150 mM KCl; for Kd: 25°C, from T-jump kinetics, read-out: overall KD obtained from kinetic experiments; for kon / koff: T-jump 16 to 25°C, PDZ2as 2 μM, peptide 100 to 400 μM, fluorescence ex 296 nm, 20 traces averaged, pseudo-first order; for kon: read-out: association bimolecular rate constant kon; for koff: read-out: dissociation rate constant koff
# Description: Previous studies have highlighted that the alternative splicing affects remarkably the binding function of the PDZ moiety, by nearly abrogating binding. To address the binding mechanism of pWT43 PDZ2as and its physiological partners, we performed kinetic experiments at 25°C. We carried out kinetic binding experiments by subjecting to temperature jump kinetics a constant concentration of pWT43 PDZ2as (2 μM) in the presence of excess concentrations of dansylated peptides mimicking the PDZ binding motif of APC and RIL; the latter concentrations typically varying from 100 to 400 μM. In particular, individual solutions containing a constant concentration of PDZ2as 2 μM and different concentrations of APC and RIL peptide were prepared and, subsequently, each of these solutions was subjected to a rapid temperature-jump to explore sub-ms relaxation binding kinetics. Under all the explored conditions, the observed time course was satisfactorily fitted by a single-exponential function, without evidence for accumulation of detectable intermediates. Analysis of the pseudo-first order dependence of observed rate constants (Figure 6) yields an association bimolecular rate constant kon of (0.44 ± 0.1) 10^6 s^−1 M^−1 and (0.74 ± 0.1) 10^6 s^−1 M^−1 and a dissociation rate constant koff of 145 ± 10 s^−1 and 120 ± 15 s^−1, respectively for APC and RIL peptides. […] A comparison between the observed kinetics on the light of previously reported structural and kinetic data of pWT43 PDZ2 is briefly discussed below.
# Figure 6 Binding properties of pWT43 PDZ2as and of pWT43 PDZ2. Pseudo first order kinetics of the binding between pWT43 PDZ2as (circles) and pWT43 PDZ2 (diamonds) carried out at pH 7.2, 25°C. Data refer to both the APC (open symbols) and RIL (filled symbols) peptide.
# Dansylated peptides corresponding to the C-terminus of APC and RIL, sequences D-SYLVTSV and D-EQVSAV, respectively, were purchased from JPT Peptide Technologies (Berlin, Germany); peptides were purified using high-performance liquid chromatography-purified peptide with purity higher than 95%.
# Binding experiments were performed mixing a constant concentration of PDZ2as 2 μM with increasing concentrations of the APC or RIL peptide ranging from 100 to 400 μM in 50 mM sodium phosphate pH 7.2, in the presence of 150 mM KCl. The experiments were carried out using a Hi-Tech PTJ-64 capacitor-discharge T-jump apparatus (Hi-Tech, Salisbury, U.K.). Temperature was rapidly changed from 16°C to 25°C with a jump of 9°C. 20 individual traces were averaged at given peptide concentration. The fluorescence change of N-acetyltryptophanamide (NATA) was used in control measurements. Protein concentration was typically […]. The excitation wavelength was 296 nm and the fluorescence emission was measured using a band pass 315 +/− 25 nm glass filter.
# [1] = target: T2, pWT43 PDZ2as, the alternatively spliced …; assay: temperature-jump fluorescence relaxation kinetics; constant pWT43 PDZ2as 2 uM with dansylated peptide 100 to 400 uM (pseudo-first order); 50 mM sodium phosphate pH 7.2, 150 mM KCl; jump from 16 to 25 °C; KD from kinetics; details: both partners purified
molecule,measurement,setting,value
CC(C)C[C@H](NC(=O)[C@H](Cc1ccc(O)cc1)NC(=O)[C@H](CO)NS(=O)(=O)c1cccc2c(N(C)C)cccc12)C(=O)N[C@H](C(=O)N[C@H](C(=O)N[C@@H](CO)C(=O)N[C@H](C(=O)O)C(C)C)[C@@H](C)O)C(C)C [APC] (Dansyl-SYLVTSV-OH),Kd,pWT43 PDZ2as,352 ± 20 µM
same,kon,pWT43 PDZ2as,440000 ± 100000 M⁻¹ s⁻¹
same,koff,pWT43 PDZ2as,145 ± 10 s⁻¹
CC(C)[C@H](NC(=O)[C@H](C)NC(=O)[C@H](CO)NC(=O)[C@@H](NC(=O)[C@H](CCC(N)=O)NC(=O)[C@H](CCC(=O)O)NS(=O)(=O)c1cccc2c(N(C)C)cccc12)C(C)C)C(=O)O [RIL] (Dansyl-EQVSAV-OH),Kd,pWT43 PDZ2as,162 ± 10 µM
same,kon,pWT43 PDZ2as,740000 ± 100000 M⁻¹ s⁻¹
same,koff,pWT43 PDZ2as,120 ± 15 s⁻¹
B1,Kd,[1],352 ± 20 µM
same,fold decrease of kon against pWT43 PDZ2,[1],~10 fold
same,koff,[1],145 ± 10 s⁻¹
same,kon,[1],440000 M⁻¹ s⁻¹
B2,Kd,[1],162 ± 10 µM
same,fold decrease of kon against pWT43 PDZ2,[1],~10 fold
same,koff,[1],120 ± 15 s⁻¹
same,kon,[1],740000 M⁻¹ s⁻¹
